Measurements taken from paper PMC3268813.

What was measured:
[1] = biological target: synthetic phospho-S463 CRN2 coiled coil peptide (human) (UniProt Q9ULV4); test: small-angle X-ray scattering
[2] = biological target: synthetic phospho-S463 CRN2 coiled coil peptide (human) (UniProt Q9ULV4); test: SEC-MALS

synthetic phospho-S463 CRN2 coiled coil peptide (from UniProt Q9ULV4 435-474)
stoichiometry N [1]: 3 | stoichiometry N [2]: 3
